Data reported in the supplement of paper PMC7877785.
± gives the uncertainty stated by the source.

Experiment: self-splicing fitness, log relative to wild type (ln ratio); higher = more splicing; Tetrahymena group I intron in knt gene, E. coli kanamycin selection, DiMSum; sequences stand for … in CUCUCU…GGAGGGAAAAGUUAUCAGGCAUGCACCUGGUAGCUAGUCUUUAAACCAAUAGAUUGCAUCGGUUUAAAAGGCAAGACCGUCAAAUUGCGGGAAAGGGGUCAACAGCCGUUCAGUACCAAGUCUCAGGGGAAACUUUGAGAUGGCCUUGCAAAGGGUAUGGUAAUAAGCUGACGGACAUGGUCCUAACCACGCAGCCAAGUCCUAAGUCAACAGAUCUUCUGUUGAUAUGGAUGCAGUUCACAGACUAAAUGUCGGUCGGGGAAGAUGUAUUCUUCUCAUAAGAUAUAGUCGGACCUCUCCUUAAUGGGAGCUAGCGGAUGAAGUGAUGCAACACUGGAGCCGCUGGGAACUAAUUUGUAUGCGAAAGUAUAUUGAUUAGUUUUGGAGUACUCGUGGUCG
Procedure, shortened: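 Six replicate transformations of E. coli BL21(DE3) with a pET-22b(+) library were grown overnight at 37°C or 30°C. The library randomised all eight P1ex-region intron nucleotides, the intron lying in the knt kanamycin-resistance gene, and plates were LB agar with or without 25 μg/mL kanamycin plus 100 μg/mL carbenicillin, 50 μM IPTG and 0.2% rhamnose. Pooled colonies were amplicon-sequenced on an Illumina HiSeq 2500, and fitness is the DiMSum error-weighted combination of wild-type-normalised replicate fold changes, kanamycin versus none.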

Sequence | self-splicing fitness (ln) (30 °C) | self-splicing fitness (ln) (37 °C)
GUCUAGCAAUAUUACGGAAU | -0.979 ± 0.11 | 0.135 ± 0.11
GUCUAGCAAUAUUACGGACC | -3.95 ± 0.46 | -0.565 ± 0.24
GUCUAGCAAUAUUACGGAGG | -3.98 ± 0.3 | -1.59 ± 0.18
GUCUAGCAAUAUUACGGAGU | -0.693 ± 0.096 | 0.121 ± 0.093
GUCUAGCAAUAUUACGGCGU | 0.142 ± 0.069 | 0.0882 ± 0.091
GUCUAGCAAUAUUACGGGCC | -3.14 ± 0.36 | –
GUCUAGCAAUAUUACGUAGU | -0.529 ± 0.087 | 0.276 ± 0.092
GUCUAGCAAUAUUACGUAUG | -2.94 ± 0.18 | -0.896 ± 0.13
GUCUAGCAAUAUUACGUCUG | -2.49 ± 0.14 | -1.51 ± 0.13
GUCUAGCAAUAUUACGUUAG | -2.42 ± 0.16 | -2.28 ± 0.21
GUCUAGCAAUAUUACGUUCA | -0.225 ± 0.11 | 0.35 ± 0.12
GUCUAGCAAUAUUACGUUCU | -0.494 ± 0.098 | -0.247 ± 0.11
GUCUAGCAAUAUUACGUUGC | -2.55 ± 0.42 | -0.754 ± 0.41
GUGAAGCAAUAUUACGAAAA | -1.44 ± 0.14 | -0.831 ± 0.18
GUGAAGCAAUAUUACGACGU | 0.815 ± 0.1 | 0.675 ± 0.1
GUGAAGCAAUAUUACGACUU | -0.643 ± 0.056 | -0.276 ± 0.084
GUGAAGCAAUAUUACGCCGG | -1.96 ± 0.45 | –
GUGAAGCAAUAUUACGCCUA | -0.415 ± 0.11 | -0.226 ± 0.17
GUGAAGCAAUAUUACGCGUC | -2.19 ± 0.19 | -0.692 ± 0.16
GUGAAGCAAUAUUACGCUGA | -1.32 ± 0.092 | -1.09 ± 0.13
GUGAAGCAAUAUUACGCUUA | -1.49 ± 0.087 | -0.459 ± 0.13
GUGAAGCAAUAUUACGGAAA | -1.64 ± 0.11 | -0.16 ± 0.17
GUGAAGCAAUAUUACGGAUG | -0.987 ± 0.07 | -0.586 ± 0.098
GUGAAGCAAUAUUACGGCCA | -0.0192 ± 0.11 | 0.468 ± 0.15
GUGAAGCAAUAUUACGGGGG | -2.67 ± 0.14 | -3.08 ± 0.14
GUGAAGCAAUAUUACGGGGU | -3.53 ± 0.16 | -1.45 ± 0.14

Sequence | self-splicing fitness (ln) (30 °C) | self-splicing fitness (ln) (37 °C)
GUGAAGCAAUAUUACGGUGC | -1.74 ± 0.27 | -0.977 ± 0.27
GUGAAGCAAUAUUACGUGGU | -4.17 ± 0.24 | -1.61 ± 0.14
GUGCAGCAAUAUUACGAAAG | -1.58 ± 0.18 | -2.38 ± 0.27
GUGCAGCAAUAUUACGAACU | -1.16 ± 0.11 | 0.161 ± 0.12
GUGCAGCAAUAUUACGAAGU | -1.74 ± 0.14 | -0.554 ± 0.17
GUGCAGCAAUAUUACGAAUG | -2.95 ± 0.16 | -2.01 ± 0.19
GUGCAGCAAUAUUACGACGC | -0.518 ± 0.099 | 0.23 ± 0.13
GUGCAGCAAUAUUACGAGAC | -2.12 ± 0.13 | -1.53 ± 0.12
GUGCAGCAAUAUUACGAUAG | -2.3 ± 0.22 | -2.21 ± 0.27
GUGCAGCAAUAUUACGAUGG | -3.54 ± 0.37 | -3.15 ± 0.47
GUGCAGCAAUAUUACGCAGC | -3.21 ± 0.34 | -1.3 ± 0.34
GUGCAGCAAUAUUACGCAUG | -3.11 ± 0.29 | -0.586 ± 0.16
GUGCAGCAAUAUUACGCCAC | – | -1.95 ± 0.47
GUGCAGCAAUAUUACGCUUU | -1.26 ± 0.066 | -0.18 ± 0.074
GUGCAGCAAUAUUACGGAGG | -3.96 ± 0.22 | -2.55 ± 0.25
GUGCAGCAAUAUUACGGCGA | -0.548 ± 0.064 | 0.119 ± 0.092
GUGCAGCAAUAUUACGGCGG | -1.98 ± 0.11 | -1.1 ± 0.13
GUGCAGCAAUAUUACGGUCA | -1.46 ± 0.12 | -1.16 ± 0.11
GUGCAGCAAUAUUACGGUCC | -0.146 ± 0.15 | 0.0655 ± 0.22
GUGCAGCAAUAUUACGGUGC | -1.91 ± 0.19 | -2.31 ± 0.28
GUGCAGCAAUAUUACGUCAU | -2.23 ± 0.089 | -1.95 ± 0.1
GUGCAGCAAUAUUACGUGAG | -0.173 ± 0.054 | -0.117 ± 0.084
GUGCAGCAAUAUUACGUGUA | -2.77 ± 0.16 | -1.31 ± 0.11
GUGCAGCAAUAUUACGUUAU | -1.84 ± 0.084 | -0.973 ± 0.098
GUGCAGCAAUAUUACGUUCU | -1.1 ± 0.1 | 0.673 ± 0.097
GUGGAGCAAUAUUACGACUA | – | -0.509 ± 0.37

Sequence | self-splicing fitness (ln) (30 °C) | self-splicing fitness (ln) (37 °C)
GUGGAGCAAUAUUACGCCAA | -2.82 ± 0.33 | -0.536 ± 0.33
GUGGAGCAAUAUUACGCGAU | -2.82 ± 0.32 | -2.31 ± 0.39
GUGGAGCAAUAUUACGCGGG | -2.34 ± 0.36 | -2.06 ± 0.47
GUGGAGCAAUAUUACGGCAU | -2.46 ± 0.13 | -2.62 ± 0.17
GUGGAGCAAUAUUACGGCUA | -1.06 ± 0.48 | -0.218 ± 0.35
GUGGAGCAAUAUUACGGUCA | -2.12 ± 0.17 | -1.23 ± 0.13
GUGGAGCAAUAUUACGUAGA | -2.11 ± 0.45 | -1.16 ± 0.23
GUGGAGCAAUAUUACGUGUG | -2.65 ± 0.21 | -2.65 ± 0.23
GUGGAGCAAUAUUACGUUUU | -3.35 ± 0.28 | -2.48 ± 0.48
GUGUAGCAAUAUUACGACAC | -2.68 ± 0.18 | -2.17 ± 0.2
GUGUAGCAAUAUUACGAGUG | -2.83 ± 0.43 | –
GUGUAGCAAUAUUACGAUAU | -0.699 ± 0.17 | -0.881 ± 0.21
GUGUAGCAAUAUUACGCAAU | -2.06 ± 0.22 | -1.26 ± 0.18
GUGUAGCAAUAUUACGCGGA | – | -1.54 ± 0.36
GUGUAGCAAUAUUACGGACA | -0.685 ± 0.15 | -1.11 ± 0.18
GUGUAGCAAUAUUACGGUAA | -2.48 ± 0.14 | -1.49 ± 0.11
GUGUAGCAAUAUUACGUAAA | -2.96 ± 0.21 | -0.326 ± 0.15
GUGUAGCAAUAUUACGUAAU | -1.75 ± 0.12 | -0.371 ± 0.12
GUGUAGCAAUAUUACGUAUC | -1.01 ± 0.29 | –
GUGUAGCAAUAUUACGUCAG | -3.06 ± 0.26 | -2.53 ± 0.29
GUGUAGCAAUAUUACGUGCG | -1.8 ± 0.18 | -0.374 ± 0.19
GUGUAGCAAUAUUACGUGUC | -2.67 ± 0.21 | -0.104 ± 0.12
GUGUAGCAAUAUUACGUUAU | -2.81 ± 0.16 | -2.41 ± 0.2
GUUAAGCAAUAUUACGAAAC | -3 ± 0.48 | -2.83 ± 0.48
GUUAAGCAAUAUUACGAAGU | -2.06 ± 0.18 | -1.45 ± 0.23
GUUAAGCAAUAUUACGAGAC | – | -0.662 ± 0.25
